In patent US20220227845A1:

Biological target: HIV-1 Env of the 208-pseudovirus panel (Table 1)
Assay: cell-based or functional assay

B1: PentaNAb2.0 ScFv (10E8v4_S100cF-5X-35O22-5X-N6-5X-PGT121-5X-VRC26.25-His) (scFv)
scFv: SELTQDPAVSVALKQTVTITCRGDSLRSHYASWYQKKPGQAPVLLFYGKNNRPSGIPDRFSGSASGNRASLTITGAQAEDEADYYCSSRDKSGSRLSVFGGGTKLTVLGGGGSGGGGSGGGGSEVRLVESGGGLVKPGGSLRLSCSASGFDFDNAWMTWVRQPPGKGLEWVGRITGPGEGWSVDYAESVKGRFTISRDNTKNTLYLEMNNVRTEDTGYYFCARTGKYYDFWFGYPPGEEYFQDWGQGTLVIVSSGGGGSGGGGSGGGGSGGGGSGGGGSQSVLTQSASVSGSLGQSVTISCTGPNSVCCSHKSISWYQWPPGRAPTLIIYEDNERAPGISPRFSGYKSYWSAYLTISDLRPEDETTYYCCSYTHNSGCVFGTGTKVSVLGGGGSGGGGSGGGGSQGQLVQSGAELKKPGASVKISCKTSGYRFNFYHINWIRQTAGRGPEWMGWISPYSGDKNLAPAFQDRVIMTTDTEVPVTSFTSTGAAYMEIRNLKFDDTGTYFCAKGLLRDGSSTWLPYLWGQGTLLTVSSGGGGSGGGGSGGGGSGGGGSGGGGSYIHVTQSPSSLSVSIGDRVTINCQTSQGVGSDLHWYQHKPGRAPKLLIHHTSSVEDGVPSRFSGSGFHTSFNLTISDLQADDIATYYCQVLQFFGRGSRLHIKGGGGSGGGGSGGGGSRAHLVQSGTAMKKPGASVRVSCQTSGYTFTAHILFWFRQAPGRGLEWVGWIKPQYGAVNFGGGFRDRVTLTRDVYREIAYMDIRGLKPDDTAVYYCARDRSYGDSSWALDAWGQGTTVVVSAGGGGSGGGGSGGGGSGGGGSGGGGSSDISVAPGETARISCGEKSLGSRAVQWYQHRAGQAPSLIIYNNQDRPSGIPERFSGSPDSPFGTTATLTITSVEAGDEADYYCHIWDSRVPTKWVFGGGTTLTVLGGGGSGGGGSGGGGSQMQLQESGPGLVKPSETLSLTCSVSGASISDSYWSWIRRSPGKGLEWIGYVHKSGDTNYSPSLKSRVNLSLDTSKNQVSLSLVAATAADSGKYYCARTLHGRRIYGIVAFNEWFTYFYMDVWGNGTQVTVSSGGGGSGGGGSGGGGSGGGGSGGGGSQSVLTQPPSVSAAPGQKVTISCSGNTSNIGNNFVSWYQQRPGRAPQLLIYETDKRPSGIPDRFSASKSGTSGTLAITGLQTGDEADYYCATWAASLSSARVFGTGTKVIVLVGGGGSGGGGSGGGGSQVQLVESGGGVVQPGTSLRLSCAASQFRFDGYGMHWVRQAPGKGLEWVASISHDGIKKYHAEKVWGRFTISRDNSKNTLYLQMNSLRPEDTALYYCAKDLREDECEEWWSDYYDFGKQLPCAKSRGGLVGIADNWGQGTMVTVSSGSGHHHHHH
B1 was tested, and the IC50 geomean, neutralization of 208-virus panel was 6 ng/mL and the virus isolate coverage (neutralization breadth), 208-virus panel was 99.6%.

B2: 35O22 (antibody, V domains shown)
VH: QGQLVQSGAELKKPGASVKISCKTSGYRFNFYHINWIRQTAGRGPEWMGWISPYSGDKNLAPAFQDRVIMTTDTEVPVTSFTSTGAAYMEIRNLKFDDTGTYFCAKGLLRDGSSTWLPYLWGQGTLLTVSS
VL: QSVLTQSASVSGSLGQSVTISCTGPNSVCCSHKSISWYQWPPGRAPTLIIYEDNERAPGISPRFSGYKSYWSAYLTISDLRPEDETTYYCCSYTHNSGCVFGTGTKVSVL
For B2, the virus isolate coverage (neutralization breadth), 208-virus panel was 45.2%.
